The experiment has as its target Snf1 protein tagged with 3 copies of the HA epitope (wild type) (S. cerevisiae) (UniProt P06782). Kind of experiment: co-IP.
Sequence of UniProt P06782 (P06782 whole entry): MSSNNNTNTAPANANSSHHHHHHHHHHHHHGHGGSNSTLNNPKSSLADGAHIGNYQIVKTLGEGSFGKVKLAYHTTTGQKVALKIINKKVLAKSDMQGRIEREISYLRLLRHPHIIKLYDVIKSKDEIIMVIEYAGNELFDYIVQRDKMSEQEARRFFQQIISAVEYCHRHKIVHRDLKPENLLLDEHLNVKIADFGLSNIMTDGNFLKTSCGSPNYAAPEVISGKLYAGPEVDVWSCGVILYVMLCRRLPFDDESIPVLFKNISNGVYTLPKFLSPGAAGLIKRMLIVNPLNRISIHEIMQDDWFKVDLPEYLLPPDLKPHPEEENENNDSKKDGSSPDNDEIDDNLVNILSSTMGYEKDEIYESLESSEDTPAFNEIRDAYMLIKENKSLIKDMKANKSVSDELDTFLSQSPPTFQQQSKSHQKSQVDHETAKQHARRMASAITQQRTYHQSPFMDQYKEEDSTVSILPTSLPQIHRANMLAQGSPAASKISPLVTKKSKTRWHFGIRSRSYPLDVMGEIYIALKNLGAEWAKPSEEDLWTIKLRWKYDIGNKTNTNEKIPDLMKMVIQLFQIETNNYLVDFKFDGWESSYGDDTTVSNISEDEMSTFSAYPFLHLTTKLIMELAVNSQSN

“Reg1-IF (I466M, F468A) (from UniProt Q00816 1-1014) (natural protein)” gave a fold reduction of associated Reg1 against wild type Reg1 of 30 fold.

(Values after paper PMC2860547.)
